Measurements published in publication PMC6375885, “Specific Inhibition of Soluble γc Receptor Attenuates Collagen-Induced Arthritis by Modulating the Inflammatory T Cell Responses” (Frontiers in Immunology, 2019).

Target: the molecule itself
Assay: immunoprecipitation, non-reducing SDS-PAGE and immunoblot; culture supernatant of transfected HEK293T cells precipitated with α-mouse IL-2Rγ antibody and protein A/G agarose; resolved under non-reducing conditions (DTT-); blotted with biotinylated α-mouse IL-2Rγ antibody; dimer and monomer bands

B1: soluble common gamma chain (sγc), wild type (natural protein)
chain: WSSKVLMSSANEDIKADLILTSTAPEHLSAPTLPLPEVQCFVFNIEYMNCTWNSSSEPQATNLTLHYRYKVSDNNTFQECSHYLFSKEITSGCQIQKEDIQLYQTFVVQLQDPQKPQRRAVQKLNLQNLVIPRAPENLTLSNLSESQLELRWKSRHIKERCLQYLVQYRSNRDRSWTELIVNHEPRFSLPSVDELKRYTFRVRSRYNPICGSSQQWSKWSQPVHWGSHTVEECLQFPPSRI
notes: signal peptide in the construct; common gamma chain (γc, IL-2Rγ), the part before the new C-terminal 9 a.a. of the alternatively spliced soluble form; not part of the membrane form of γc; Secreted; found as a disulfide-linked dimer and as a monomer in the supernatant; The reverse primer has no stop codon, so a C-terminal tag from the vector may follow (surmise; also called WT sγc; soluble γc; …)
- stoichiometry N: 2
